Source: article PMC3317646, “Interaction of Chandipura Virus N and P Proteins: Identification of Two Mutually Exclusive Domains of N Involved in Interaction with P” (PLoS ONE, 2012)

Legend:
Conditions in all cases: both partners purified
[1] = biological target: T1, N(1/180–265/422), bacterially expressed (Chandipura virus, UniProt P11211 1-422, N(1/180–265/422)); assay: pull-down; His-tag co-elution after 1% DOC treatment of the N variants and dialysis against the binding buffer in presence of His-P (N variants monomeric); Ni-NTA agarose, eluted with 250 mM imidazole
T1 construct: also called middle deletant; source: E. coli BL21(DE3) or BL21(DE3)pLysS, purified (anion exchange, MonoQ 5/50 GL)
T1 sequence: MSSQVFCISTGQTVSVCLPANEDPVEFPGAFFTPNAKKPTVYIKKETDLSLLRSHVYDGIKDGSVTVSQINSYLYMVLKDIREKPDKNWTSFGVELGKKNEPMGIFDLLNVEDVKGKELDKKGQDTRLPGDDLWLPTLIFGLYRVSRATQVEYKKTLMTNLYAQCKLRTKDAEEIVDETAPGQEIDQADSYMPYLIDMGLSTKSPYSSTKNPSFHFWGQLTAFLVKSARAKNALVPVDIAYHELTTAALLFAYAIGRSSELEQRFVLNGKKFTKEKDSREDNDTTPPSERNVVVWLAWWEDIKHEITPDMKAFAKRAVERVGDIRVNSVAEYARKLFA

[2] = biological target: T2, N(1–320), bacterially expressed (Chandipura virus, UniProt P11211 1-320); assay: as above
T2 construct: Chandipura virus nucleocapsid protein N, residues 1-320; also called N(1–320)^0 (monomer after DOC treatment); source: E. coli BL21(DE3) or BL21(DE3)pLysS, purified (anion exchange, MonoQ 5/50 GL)
T2 sequence: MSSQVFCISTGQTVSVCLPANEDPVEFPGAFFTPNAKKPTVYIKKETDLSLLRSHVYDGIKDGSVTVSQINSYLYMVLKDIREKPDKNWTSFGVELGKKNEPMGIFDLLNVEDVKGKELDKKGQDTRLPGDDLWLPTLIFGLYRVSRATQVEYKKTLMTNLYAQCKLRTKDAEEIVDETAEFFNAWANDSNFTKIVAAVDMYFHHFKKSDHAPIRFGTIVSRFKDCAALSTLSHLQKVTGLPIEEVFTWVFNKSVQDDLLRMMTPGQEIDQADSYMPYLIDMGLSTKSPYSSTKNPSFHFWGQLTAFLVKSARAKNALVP

[3] = biological target: T3, N(1–390), bacterially expressed (Chandipura virus, UniProt P11211 1-390); assay: pull-down; His-tag co-elution: N proteins not treated with DOC incubated with 6×His-P in 50 mM Tris-Cl pH 8, 100 mM NaCl, 0.1% Triton X-100, 10 mM imidazole, 30 min at 4°C; bound to Ni-NTA agarose, eluted with 250 mM imidazole
T3 construct: Chandipura virus nucleocapsid protein N, residues 1-390; source: E. coli BL21(DE3) or BL21(DE3)pLysS, purified (anion exchange, MonoQ 5/50 GL)
T3 sequence: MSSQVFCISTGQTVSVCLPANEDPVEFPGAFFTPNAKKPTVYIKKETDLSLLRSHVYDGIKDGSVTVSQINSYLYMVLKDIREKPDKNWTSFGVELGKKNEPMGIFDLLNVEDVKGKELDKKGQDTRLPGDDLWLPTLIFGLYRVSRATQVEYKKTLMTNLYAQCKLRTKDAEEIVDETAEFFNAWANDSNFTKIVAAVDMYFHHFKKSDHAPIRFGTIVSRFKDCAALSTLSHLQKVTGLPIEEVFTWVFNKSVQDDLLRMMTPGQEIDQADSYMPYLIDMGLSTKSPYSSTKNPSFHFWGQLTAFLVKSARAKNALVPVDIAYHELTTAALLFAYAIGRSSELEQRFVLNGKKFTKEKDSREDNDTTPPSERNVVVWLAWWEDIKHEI

[4] = biological target: T4, Chandipura virus nucleocapsid protein (N), wild-type, untagged, bacterially expressed (Chandipura virus, UniProt P11211 1-422); assay: as above
T4 construct: Chandipura virus nucleocapsid protein N, full-length untagged (pET3a-NC); Oligomeric (nucleocapsid-like rings) as purified; monomeric after 1% DOC; also called CHPV N; wild-type N
T4 sequence: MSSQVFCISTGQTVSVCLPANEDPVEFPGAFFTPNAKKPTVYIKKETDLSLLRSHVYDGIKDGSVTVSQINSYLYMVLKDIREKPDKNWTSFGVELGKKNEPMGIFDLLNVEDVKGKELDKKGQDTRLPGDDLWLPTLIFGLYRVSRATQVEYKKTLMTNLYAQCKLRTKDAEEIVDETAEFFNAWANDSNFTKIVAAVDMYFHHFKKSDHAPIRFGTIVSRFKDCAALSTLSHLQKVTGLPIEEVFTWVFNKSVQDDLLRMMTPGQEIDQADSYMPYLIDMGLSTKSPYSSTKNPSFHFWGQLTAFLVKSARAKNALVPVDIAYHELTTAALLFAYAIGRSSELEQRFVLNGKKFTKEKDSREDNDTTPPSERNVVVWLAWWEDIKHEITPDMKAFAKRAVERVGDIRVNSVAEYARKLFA

[5] = biological target: T5, N(48–422), bacterially expressed (Chandipura virus, UniProt P11211 48-422); assay: as above
T5 construct: source: E. coli BL21(DE3) or BL21(DE3)pLysS, purified (anion exchange, MonoQ 5/50 GL)
T5 sequence: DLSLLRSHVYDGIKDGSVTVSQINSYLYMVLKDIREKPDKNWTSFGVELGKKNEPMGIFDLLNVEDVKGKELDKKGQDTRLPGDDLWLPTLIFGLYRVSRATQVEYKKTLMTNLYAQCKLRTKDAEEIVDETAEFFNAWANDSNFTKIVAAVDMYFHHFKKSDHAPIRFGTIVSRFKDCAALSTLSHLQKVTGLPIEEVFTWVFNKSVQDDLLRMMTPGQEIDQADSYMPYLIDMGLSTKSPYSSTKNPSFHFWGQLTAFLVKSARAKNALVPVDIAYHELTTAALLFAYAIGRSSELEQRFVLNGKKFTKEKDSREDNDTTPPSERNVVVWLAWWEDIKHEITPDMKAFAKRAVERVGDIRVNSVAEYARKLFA

[6] = biological target: T6, N(22–422), bacterially expressed (Chandipura virus, UniProt P11211 22-422); assay: as above
T6 construct: source: E. coli BL21(DE3) or BL21(DE3)pLysS, purified (anion exchange, MonoQ 5/50 GL)
T6 sequence: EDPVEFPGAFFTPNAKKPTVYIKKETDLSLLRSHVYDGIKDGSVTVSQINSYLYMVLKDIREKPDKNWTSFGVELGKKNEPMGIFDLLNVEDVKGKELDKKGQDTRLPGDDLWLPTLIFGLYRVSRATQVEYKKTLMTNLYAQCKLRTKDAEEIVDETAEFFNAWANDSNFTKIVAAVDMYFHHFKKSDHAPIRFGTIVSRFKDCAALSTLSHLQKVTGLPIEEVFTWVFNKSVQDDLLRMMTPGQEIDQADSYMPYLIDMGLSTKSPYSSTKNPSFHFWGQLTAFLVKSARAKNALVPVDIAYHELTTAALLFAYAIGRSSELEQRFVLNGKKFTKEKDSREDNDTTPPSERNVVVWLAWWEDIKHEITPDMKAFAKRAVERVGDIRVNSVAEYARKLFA

Measured: binding result

B1: N-terminal six histidine tagged P protein of Chandipura virus (His-P) (natural protein)
chain: MEDSQLYQALKNYPKLQDTLDSIENLEDDTKSEPSECGSPTERGIPSYYLAEELDECEEEDSEEDDDNLPTEIPDPPTVDMLEAIMEDEIDDTAYQVHFEAKQTWKPVIETGGNERGKFTLSVPQNLSALQLLQWETGIHALAERLGGCRLLQISTRGTRDGIEFTVRETPCVSPASDPIPSTSRSSSIASNVSTRQTESPGSKSNTSLGIPEAPANLIDMGAIDKEFILAAISPSDPPYKNTLRNLFGSGDSFEQYNQTGIYSLKELVIAGLKRKGIYNRIRIRCHLEPQFN
notes: Chandipura virus phosphoprotein P, full length (pET20b-P); pET20b usually adds a C-terminal His tag (surmise); also called 6×His-P; pET20b-P; source: bacterially expressed, purified (Ni-NTA agarose); not shown: His6, N-terminal, kept
binds: all assays above
